In publication doi:10.1101/2022.01.14.476392 (bioRxiv, 2022):

Molecular target: the molecule itself
Test: BLI

B1: diol-dehydratase PduCDE (complex, Salmonella enterica)
chain 1: MRSKRFEALAKRPVNQDGFVKEWIEEGFIAMESPNDPKPSIKIVNGAVTELDGKPVSEFDLIDHFIARYGINLNRAEEVMAMDSVKLANMLCDPNVKRSEIVPLTTAMTPAKIVEVVSHMNVVEMMMAMQKMRARRTPSQQAHVTNVKDNPVQIAADAAEGAWRGFDEQETTVAVARYAPFNAIALLVGSQVGRPGVLTQCSLEEATELKLGMLGHTCYAETISVYGTEPVFTDGDDTPWSKGFLASSYASRGLKMRFTSGSGSEVQMGYAEGKSMLYLEARCIYITKAAGVQGLQNGSVSCIGVPSAVPSGIRAVLAENLICSSLDLECASSNDQTFTHSDMRRTARLLMQFLPGTDFISSGYSAVPNYDNMFAGSNEDAEDFDDYNVIQRDLKVDGGLRPVREEDVIAIRNKAARALQAVFAGMGLPPITDEEVEAATYAHGSKDMPERNIVEDIKFAQEIINKNRNGLEVVKALAQGGFTDVAQDMLNIQKAKLTGDYLHTSAIIVGDGQVLSAVNDVNDYAGPATGYRLQGERWEEIKNIPGALDPNEID
chain 2: MEINEKLLRQIIEDVLRDMKGSDKPVSFNAPAASTAPQTAAPAGDGFLTEVGEARQGTQQDEVIIAVGPAFGLAQTVNIVGLPHKSILREVIAGIEEEGIKARVIRCFKSSDVAFVAVEGNRLSGSGISIGIQSKGTTVIHQQGLPPLSNLELFPQAPLLTLETYRQIGKNAARYAKRESPQPVPTLNDQMARPKYQAKSAILHIKETKYVVTGKNPQELRVAL
chain 3: MNTDAIESMVRDVLSRMNSLQGDAPAAAPAAGGTSRSAKVSDYPLANKHPEWVKTATNKTLDDFTLENVLSNKVTAQDMRITPETLRLQASIAKDAGRDRLAMNFERAAELTAVPDDRILEIYNALRPYRSTKEELLAIADDLENRYQAKICAAFVREAAGLYVERKKLKGDD
With B1 the Kd was 3.5 µM.
